# Assay results: paper PMC12476836
# Where two headings read alike, the source gives them in different places.
# Key:
# [1] = target: FLAG-GFP-SLiM DDSVFA (FGFR3); assay: BioID2 proximity labeling (streptavidin immunoblot quantification); details: n = 3, FLAG-GFP-SLiM +DDSVFA (FGFR3)
# [2] = target: FLAG-GFP-SLiM EDSVFS (FGFR1); assay: as above; details: n = 3, FLAG-GFP-SLiM +EDSVFS (FGFR1)
# [3] = target: FLAG-GFP-SLiM with the predicted DDVF-like motif of TRM9B; assay: as above; details: n = 3; FLAG-GFP-SLiM +DEEVFV (TRM9B); parent: est. 1.2; read off a plot
# [4] = target: FLAG-GFP-SLiM with the predicted DDVF-like motif of PTPN3; assay: as above; details: n = 3; FLAG-GFP-SLiM +TEDVFY (PTPN3); parent: est. 1.6; read off a plot
# [5] = target: FLAG-GFP-SLiM with the predicted DDVF motif of GTSE1; assay: as above; details: n = 3, FLAG-GFP-SLiM +DDEVFF (GTSE1)
# [6] = target: FLAG-GFP-SLiM with the predicted DDVF-like motif of TMEM139; assay: as above; details: n = 3; FLAG-GFP-SLiM +DDSVFY (TMEM139); parent: est. 2.4; read off a plot
# [7] = target: FLAG-GFP-SLiM DDSVFS (FGFR2); assay: as above; details: n = 3, FLAG-GFP-SLiM +DDSVFS (FGFR2)
# unnamed [8] = assay: affinities annotated in the ELM database (various methods, AffinityMin); details: cited from earlier work
# unnamed [9] = details: cited from earlier work
# unnamed [10] = details: cited from earlier work; remark: listed apart in the source
# Target sequence in this assay (P12004 127-254): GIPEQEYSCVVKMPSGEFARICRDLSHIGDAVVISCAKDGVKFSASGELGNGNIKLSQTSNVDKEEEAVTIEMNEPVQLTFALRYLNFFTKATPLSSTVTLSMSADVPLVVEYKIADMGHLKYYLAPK
# Chain of Q15004 (Q15004 whole entry, looked up): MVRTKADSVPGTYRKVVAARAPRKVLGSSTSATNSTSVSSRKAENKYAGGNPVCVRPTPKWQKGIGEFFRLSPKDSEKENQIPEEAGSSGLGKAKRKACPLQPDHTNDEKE
# Chain of Q9UQ84 (Q9UQ84 whole entry, looked up): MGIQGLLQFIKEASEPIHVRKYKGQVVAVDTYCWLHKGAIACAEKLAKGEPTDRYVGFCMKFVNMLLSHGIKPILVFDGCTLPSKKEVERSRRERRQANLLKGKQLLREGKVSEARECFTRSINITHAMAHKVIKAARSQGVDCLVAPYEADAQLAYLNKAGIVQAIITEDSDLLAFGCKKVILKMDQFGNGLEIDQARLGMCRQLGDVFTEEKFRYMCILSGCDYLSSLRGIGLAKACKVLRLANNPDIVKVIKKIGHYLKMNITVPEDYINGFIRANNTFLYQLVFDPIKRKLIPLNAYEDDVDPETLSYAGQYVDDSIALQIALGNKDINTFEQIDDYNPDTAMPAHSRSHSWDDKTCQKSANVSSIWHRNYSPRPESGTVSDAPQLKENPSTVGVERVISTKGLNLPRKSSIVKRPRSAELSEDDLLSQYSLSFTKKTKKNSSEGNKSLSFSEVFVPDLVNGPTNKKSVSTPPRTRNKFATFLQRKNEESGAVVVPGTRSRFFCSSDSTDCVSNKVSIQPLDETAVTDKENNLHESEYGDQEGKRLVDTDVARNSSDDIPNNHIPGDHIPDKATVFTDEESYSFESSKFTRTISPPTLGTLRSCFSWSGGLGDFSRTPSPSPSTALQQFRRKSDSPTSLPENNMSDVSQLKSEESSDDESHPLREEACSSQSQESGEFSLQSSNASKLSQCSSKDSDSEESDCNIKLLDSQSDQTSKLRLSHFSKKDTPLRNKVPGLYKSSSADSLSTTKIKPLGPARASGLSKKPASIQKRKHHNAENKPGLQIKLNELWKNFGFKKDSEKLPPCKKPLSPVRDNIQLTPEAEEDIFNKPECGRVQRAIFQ
# Chain of O75367 (O75367 whole entry, looked up): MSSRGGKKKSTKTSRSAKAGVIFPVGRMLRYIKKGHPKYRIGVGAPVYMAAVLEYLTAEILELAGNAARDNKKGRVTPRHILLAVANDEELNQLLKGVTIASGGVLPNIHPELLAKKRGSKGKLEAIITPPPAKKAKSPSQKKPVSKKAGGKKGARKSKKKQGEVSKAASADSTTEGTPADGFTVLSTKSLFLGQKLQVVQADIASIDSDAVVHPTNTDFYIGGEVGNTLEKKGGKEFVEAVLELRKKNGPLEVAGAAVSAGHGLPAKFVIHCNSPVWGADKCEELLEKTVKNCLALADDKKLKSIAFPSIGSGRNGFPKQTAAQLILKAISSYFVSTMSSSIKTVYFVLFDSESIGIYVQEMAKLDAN
# Chain of P06400 (P06400 whole entry, looked up): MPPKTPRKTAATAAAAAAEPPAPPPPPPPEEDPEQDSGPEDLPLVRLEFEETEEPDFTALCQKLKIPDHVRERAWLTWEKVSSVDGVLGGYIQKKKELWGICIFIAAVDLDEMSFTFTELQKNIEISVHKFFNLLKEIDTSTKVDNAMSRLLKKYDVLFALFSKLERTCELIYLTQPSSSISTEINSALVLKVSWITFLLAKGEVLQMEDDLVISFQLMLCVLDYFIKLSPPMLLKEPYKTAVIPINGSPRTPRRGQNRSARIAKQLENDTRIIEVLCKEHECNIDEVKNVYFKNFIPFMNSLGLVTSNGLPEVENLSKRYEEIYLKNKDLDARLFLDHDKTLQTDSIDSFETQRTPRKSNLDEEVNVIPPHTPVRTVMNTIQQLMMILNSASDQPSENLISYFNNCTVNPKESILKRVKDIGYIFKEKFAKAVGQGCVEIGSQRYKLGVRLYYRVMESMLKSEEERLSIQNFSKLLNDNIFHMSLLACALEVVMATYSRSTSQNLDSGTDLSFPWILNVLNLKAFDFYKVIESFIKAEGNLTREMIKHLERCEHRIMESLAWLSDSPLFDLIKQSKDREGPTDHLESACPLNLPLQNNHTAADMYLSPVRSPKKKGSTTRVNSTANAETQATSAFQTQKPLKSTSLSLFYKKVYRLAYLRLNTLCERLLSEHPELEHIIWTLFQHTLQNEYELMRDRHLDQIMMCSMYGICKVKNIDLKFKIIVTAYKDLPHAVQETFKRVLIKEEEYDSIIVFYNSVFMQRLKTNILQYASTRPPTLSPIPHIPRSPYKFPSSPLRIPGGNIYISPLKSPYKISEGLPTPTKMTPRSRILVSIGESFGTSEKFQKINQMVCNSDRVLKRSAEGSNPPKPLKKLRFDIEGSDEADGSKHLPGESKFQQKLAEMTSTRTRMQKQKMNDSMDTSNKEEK
# Chain of Q13137 (Q13137 whole entry, looked up): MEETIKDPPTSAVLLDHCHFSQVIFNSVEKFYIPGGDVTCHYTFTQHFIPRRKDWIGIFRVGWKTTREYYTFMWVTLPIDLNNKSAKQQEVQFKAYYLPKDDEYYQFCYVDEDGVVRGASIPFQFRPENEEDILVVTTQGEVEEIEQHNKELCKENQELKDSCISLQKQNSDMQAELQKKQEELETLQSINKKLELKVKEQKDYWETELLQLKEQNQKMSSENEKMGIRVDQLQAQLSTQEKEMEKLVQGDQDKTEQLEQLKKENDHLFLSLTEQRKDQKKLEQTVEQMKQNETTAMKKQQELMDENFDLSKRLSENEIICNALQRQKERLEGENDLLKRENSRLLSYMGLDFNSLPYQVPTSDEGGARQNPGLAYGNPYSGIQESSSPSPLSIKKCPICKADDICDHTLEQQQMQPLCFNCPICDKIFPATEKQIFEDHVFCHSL
# Chain of Q86VZ6 (Q86VZ6 whole entry, looked up): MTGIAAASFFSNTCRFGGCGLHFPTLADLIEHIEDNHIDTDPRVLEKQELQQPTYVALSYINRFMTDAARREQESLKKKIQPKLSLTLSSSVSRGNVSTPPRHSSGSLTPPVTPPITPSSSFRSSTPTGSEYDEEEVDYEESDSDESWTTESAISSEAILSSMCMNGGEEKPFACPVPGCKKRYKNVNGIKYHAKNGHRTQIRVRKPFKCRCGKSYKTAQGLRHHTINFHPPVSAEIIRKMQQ
# Chain of Q9UNA4 (Q9UNA4 whole entry, looked up): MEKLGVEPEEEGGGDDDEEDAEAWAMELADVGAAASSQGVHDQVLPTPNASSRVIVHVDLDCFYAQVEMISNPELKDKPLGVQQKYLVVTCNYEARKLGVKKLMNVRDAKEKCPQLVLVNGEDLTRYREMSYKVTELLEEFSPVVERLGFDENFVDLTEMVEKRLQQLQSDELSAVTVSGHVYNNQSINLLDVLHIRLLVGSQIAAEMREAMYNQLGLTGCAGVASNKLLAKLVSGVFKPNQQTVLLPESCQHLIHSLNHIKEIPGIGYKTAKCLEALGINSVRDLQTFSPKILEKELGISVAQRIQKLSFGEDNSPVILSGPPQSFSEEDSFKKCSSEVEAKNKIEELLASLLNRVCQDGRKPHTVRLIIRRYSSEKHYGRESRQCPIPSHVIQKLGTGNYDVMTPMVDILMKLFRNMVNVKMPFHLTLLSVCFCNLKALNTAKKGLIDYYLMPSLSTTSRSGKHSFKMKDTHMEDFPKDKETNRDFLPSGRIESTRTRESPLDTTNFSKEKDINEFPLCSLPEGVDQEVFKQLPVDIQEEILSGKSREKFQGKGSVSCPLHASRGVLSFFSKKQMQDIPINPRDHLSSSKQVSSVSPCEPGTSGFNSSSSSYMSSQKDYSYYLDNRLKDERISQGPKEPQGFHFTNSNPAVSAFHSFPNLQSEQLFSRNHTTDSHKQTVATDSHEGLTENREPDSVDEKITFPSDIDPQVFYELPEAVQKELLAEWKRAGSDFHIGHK
# Chain of P30279 (P30279 whole entry, looked up): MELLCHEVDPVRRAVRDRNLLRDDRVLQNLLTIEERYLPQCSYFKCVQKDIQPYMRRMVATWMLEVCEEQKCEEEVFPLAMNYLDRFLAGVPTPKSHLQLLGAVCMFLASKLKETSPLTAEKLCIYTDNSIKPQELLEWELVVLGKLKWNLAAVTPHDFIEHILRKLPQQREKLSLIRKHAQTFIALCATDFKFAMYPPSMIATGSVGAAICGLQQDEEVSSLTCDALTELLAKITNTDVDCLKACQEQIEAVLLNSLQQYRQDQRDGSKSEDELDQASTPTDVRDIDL
# Chain of Q96AE4 (Q96AE4 whole entry, looked up): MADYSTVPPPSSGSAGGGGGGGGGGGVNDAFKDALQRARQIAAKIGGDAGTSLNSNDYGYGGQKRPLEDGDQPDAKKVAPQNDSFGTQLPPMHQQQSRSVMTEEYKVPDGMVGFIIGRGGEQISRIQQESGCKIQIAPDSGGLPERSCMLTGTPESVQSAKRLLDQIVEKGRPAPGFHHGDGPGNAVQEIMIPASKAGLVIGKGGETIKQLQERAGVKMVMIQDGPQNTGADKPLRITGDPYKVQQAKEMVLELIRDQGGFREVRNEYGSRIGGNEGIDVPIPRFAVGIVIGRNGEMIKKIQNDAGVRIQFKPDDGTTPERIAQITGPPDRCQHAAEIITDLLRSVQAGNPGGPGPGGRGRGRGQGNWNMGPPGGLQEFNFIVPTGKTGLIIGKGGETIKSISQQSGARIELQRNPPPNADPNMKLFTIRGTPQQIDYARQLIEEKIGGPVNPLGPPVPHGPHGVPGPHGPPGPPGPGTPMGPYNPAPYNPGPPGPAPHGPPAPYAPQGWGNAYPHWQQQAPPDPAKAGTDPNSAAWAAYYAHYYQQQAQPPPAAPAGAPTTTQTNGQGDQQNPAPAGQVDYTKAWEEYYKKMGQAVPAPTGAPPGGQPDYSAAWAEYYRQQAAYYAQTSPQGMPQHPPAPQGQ
# Chain of P61081 (P61081 whole entry, looked up): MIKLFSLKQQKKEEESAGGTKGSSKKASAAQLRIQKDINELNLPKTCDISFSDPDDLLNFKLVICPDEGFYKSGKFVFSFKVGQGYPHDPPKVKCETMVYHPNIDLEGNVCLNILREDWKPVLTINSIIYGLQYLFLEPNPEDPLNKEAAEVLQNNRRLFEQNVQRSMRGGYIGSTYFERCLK
Substance,Kd (unnamed [8]) [nM],further results
"HA-RSK(WT)-BioID2 (wild-type human RSK2, ribosomal protein S6 kinase A3, fused to BioID2) (from UniProt P51812) KAKLGM-to-KSEPPY",,"ratio to parent ([1]; marked *): 2.4 fold; response (normalized biotin/FLAG) ([1]; parent: est. 1.0, read off a plot): 0.43; ratio to parent ([2]; marked *): 2.4 fold; response (normalized biotin/FLAG) ([2]; parent: est. 1.4, read off a plot): 0.6; response (normalized biotin/FLAG) [3]: 0.85; response (normalized biotin/FLAG) [4]: 1.1; ratio to parent ([5]; marked *): 2.3 fold; response (normalized biotin/FLAG) ([5]; parent: est. 0.85, read off a plot): 0.38; response (normalized biotin/FLAG) [6]: 0.4; ratio to parent ([7]; marked *): 3.8 fold; response (normalized biotin/FLAG) ([7]; parent: est. 1.3, read off a plot): 0.45"
O75367 (from UniProt O75367),63600,
O95630 (from UniProt O95630),473,
P01042 (from UniProt P01042),110000,
P01137 (from UniProt P01137),7.2,
P06400 (from UniProt P06400),3900,
P10451 (from UniProt P10451),0.43,
P14784 (from UniProt P14784),750,
P17535 (from UniProt P17535),73000,
P30279 (from UniProt P30279),2500,
P46108 (from UniProt P46108),10200,
P49137 (from UniProt P49137),50,
P61081 (from UniProt P61081),1800,
Q6NS38 (from UniProt Q6NS38),240,
Q8NHG7 (from UniProt Q8NHG7),5880,
Q8TEB9 (from UniProt Q8TEB9),66500,
Q8WUK0 (from UniProt Q8WUK0),530,

Substance,Kd (unnamed [8]) [nM],further results
Q9H0W5 (from UniProt Q9H0W5),180,
Q9H9L4 (from UniProt Q9H9L4),8600,
Q9NZM5 (from UniProt Q9NZM5),23300,
Q9UNA4 (from UniProt Q9UNA4),300,
Q9UQ84 (from UniProt Q9UQ84),16500,
Q9Y698 (from UniProt Q9Y698),32500,
Q52LA3 (from UniProt Q52LA3),1400,
Q86VZ6 (from UniProt Q86VZ6),8900,
Q96AE4 (from UniProt Q96AE4),6000,
Q96ST2 (from UniProt Q96ST2),4700,
Q01094 (from UniProt Q01094),1060,
Q13137 (from UniProt Q13137),,Kd (unnamed [9]): 1600 nM
Q13309 (from UniProt Q13309),3200,
Q15004 (from UniProt Q15004),,Kd (unnamed [10]): 1000 nM
Q15054 (from UniProt Q15054),1700,
Q92844 (from UniProt Q92844),14000,
Q99816 (from UniProt Q99816),1000,
